Measurements published in US20070065429A1, “Nogo-receptor antagonists for the treatment of conditions involving amyloid plaques” (Biogen Idec MA Inc., priority 2003, published 2007).
Values belong to the molecule of their own block, whether it stands above or below them.

Tests used:
Aβ peptides = assay: Aβ peptide binding to wells coated with purified sNgR-Fc
Experimental: We analyzed whether Aβ (1-28) binding competed for NgR binding with other known ligands for NgR by allowing 250 nM soluble AP-Aβ(1-28) or AP-Nogo (1-33) to bind to wells coated with purified sNgR310-Fc in the presence of various concentrations of competing free Aβ. […] We observed that the Aβ peptides bind to both sNgR310-Fc and sNgR344-Fc. […] However, Aβ(1-28) displaced Aβ-AP binding but not AP-Nogo-66 (1-33) or AP-OMgp binding in competition assays. The Aβ peptide may begin to displace AP-MAG very slightly at high concentrations in our experiments. Thus, the Aβ binding site on NgR appears largely distinct from that for the myelin ligands NogoA, OMgp and MAG. Consistent with this, the presence of Aβ had little effect on myelin or Nogo-66 inhibition of neurite outgrowth.

[1] = test system: APPsw/PSEN-1(DeltaE9) double transgenic mice; assay: Intracerebroventricular infusion into APPsw/PSEN-1(DeltaE9) double transgenic mice; format: in vivo; details: 2.5 mg per mouse over 56 days
Excerpt: To examine the role of the NgR/APP/AB interactions in vivo, sNgR310-Fc (a NgR antagonist; see International Patent Application PCT/US03/25004) was infused into APPsw/PSEN-1(DeltaE9) double transgenic mice (from Jackson Laboratories). The sNgR310-Fc protein contains the entire LRR ligand-binding of the NgR fused to the Fc portion of IgG. To administer sNgR310-Fc protein, 5-month-old mice were anesthetized with isoflurane/oxygen and a burr hole was drilled in the skull. A cannula (ALZET brain infusion kit II, Alza Scientific Products, Palo Alto, Calif.) was introduced into the right lateral ventricle at stereotaxic coordinates 0.6 mm posterior and 1.2 mm lateral to bregma and 4.0 mm deep to the pial surface. The cannula was held in place with cyanoacrylate and the catheter was attached to a subcutaneous osmotic minipump (Alzet 2ML4). The pump delivered 2.5 μl/hr for 28 days of a 1.2 mg/ml solution of sNgR310-Fc or rat IgG in PBS (control mice received rat IgG since both the NgR and the Pc moiety were of rat origin). Pumps were replaced after 28 days and connected to the same cannula. The total dose of protein infused was 2.5 mg per mouse over 56 days. At the end of this period, mice were sacrificed and brain AB levels were measured using an ELISA kit from Biosource International according to the manufacturer's instructions. Aβ deposition into amyloid plaques was assessed by anti-Aβ immunohistochemistry as follows. Aβ plaques in sagittal sections of 4% paraformaldehyde fixed brain were detected immunohistologically with anti-Aβ(1-17) 6E10 antibody after 0.1 M formic acid treatment for antigen recovery. Plaque area was quantitated using NIH Image as a percentage of cerebral cortical area for 3 sections from each animal.

NgR = target: T1, NgR (Homo sapiens, UniProt Q9BZR6); assay: AP-Aβ(1-28) fusion protein binding to NgR-expressing COS cells; details: not to vector-transfected COS cells
T1 construct: expressed in transfected cells; host or cells: COS cells
T1 sequence (Q9BZR6 27-473): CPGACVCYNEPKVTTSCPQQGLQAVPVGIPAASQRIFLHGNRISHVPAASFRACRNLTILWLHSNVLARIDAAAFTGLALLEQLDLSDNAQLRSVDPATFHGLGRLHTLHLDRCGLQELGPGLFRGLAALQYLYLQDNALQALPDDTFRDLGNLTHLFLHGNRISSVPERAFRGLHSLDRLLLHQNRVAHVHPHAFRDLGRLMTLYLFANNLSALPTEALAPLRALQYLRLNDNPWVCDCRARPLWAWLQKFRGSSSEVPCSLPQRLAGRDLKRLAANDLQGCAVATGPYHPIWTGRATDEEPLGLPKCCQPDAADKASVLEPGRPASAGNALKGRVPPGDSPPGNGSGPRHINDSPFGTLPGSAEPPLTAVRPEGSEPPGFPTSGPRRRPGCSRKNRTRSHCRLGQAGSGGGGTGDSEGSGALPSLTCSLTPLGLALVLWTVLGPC
Excerpt: We then investigated whether the Aβ region of APP is involved in its interaction with NgR—including whether the fibrillogenic Aβ42-3 peptide binds NgR. We created two fusion protein constructs containing alkaline phosphatase (AP) and the hydrophilic region of Aβ (amino acids 1-28) by fusing the coding sequence in frame with the signal sequence-6×His-placental alkaline phosphatase (AP) sequence of the vector pAP-6 (Nakamura et al., Neuron 2: 1093-1100, 1988). The AP-Aβ and Aβ-AP proteins both bound to NgR-expressing COS cells but not to vector-transfected COS cells. This binding was saturable with an apparent Kd of 60 nM. The interaction also was detected using purified Biotin-Aβ(1-40) in an ELISA-type assay with immobilized NgR.

binding of Aβ peptides (Aβ peptides): bind
B1: sNgR344-Fc: rat soluble NgR 344 Fc fusion (protein)
chain: CPGACVCYNEPKVTTSRPQQGLQAVPAGIPASSQRIFLHGNRISYVPAASFQSCRNLTILWLHSNALAGIDAAAFTGLTLLEQLDLSDNAQLRVVDPTTFRGLGHLHTLHLDRCGLQELGPGLFRGLAALQYLYLQDNNLQALPDNTFRDLGNLTHLFLHGNRIPSVPEHAFRGLHSLDRLLLHQNHVARVHPHAFRDLGRLMTLYLFANNLSMLPAEVLVPLRSLQYLRLNDNPWVCDCRARPLWAWLQKFRGSSSGVPSNLPQRLAGRDLKRLATSDLEGCAVASGPFRPFQTNQLTDEELLGLPKCCQPDAADKA
modifications: left off: a dimerising Fc or GST
notes: rat soluble NgR 344 Fc fusion

binding of Aβ peptides (Aβ peptides): bind
B2: sNgR310-Fc: contains the entire LRR ligand-binding of the NgR fused to the Fc portion of IgG; NgR and Fc of rat origin (protein)
chain: CPGACVCYNEPKVTTSRPQQGLQAVPAGIPASSQRIFLHGNRISYVPAASFQSCRNLTILWLHSNALAGIDAAAFTGLTLLEQLDLSDNAQLRVVDPTTFRGLGHLHTLHLDRCGLQELGPGLFRGLAALQYLYLQDNNLQALPDNTFRDLGNLTHLFLHGNRIPSVPEHAFRGLHSLDRLLLHQNHVARVHPHAFRDLGRLMTLYLFANNLSMLPAEVLVPLRSLQYLRLNDNPWVCDCRARPLWAWLQKFRGSSSGVPSNLPQRLAGRDLKRLATSDLEGCA
modifications: left off: a dimerising Fc or GST
notes: NgR and Fc of rat origin
deposition of immunoreactive Aβ into plaque ([1]; right lateral ventricle, vs rat IgG, anti-Aβ immunohistochemistry): significantly reduced
decrease of total level of Aβ(1-40) in the brain ([1]; right lateral ventricle, ELISA): 50%
decrease of total level of Aβ(1-42) in the brain ([1]; right lateral ventricle, ELISA): 50%
sAPPα levels in the brains ([1]; immunoprecipitation and immunoblot): decreased

binding to NgR-expressing COS cells (NgR): bound
B3: AP-Aβ: fusion protein of alkaline phosphatase (AP) and the hydrophilic region of Aβ (amino acids 1-28) (protein)
chain: HHHHHHIIPVEEENPDFWNREAAEALGAAKKLQPAQTAAKNLIIFLGDGMGVSTVTAARILKGQKKDKLGPEIPLAMDRFPYVALSKTYNVDKHVPDSGATATAYLCGVKGNFQTIGLSAAARFNQCNTTRGNEVISVMNRAKKAGKSVGVVTTTRVQHASPAGTYAHTVNRNWYSDADVPASARQEGCQDIATQLISNMDIDVILGGGRKYMFRMGTPDPEYPDDYSQGGTRLDGKNLVQEWLAKRQGARYVWNRTELMQASLDPSVTHLMGLFEPGDMKYEIHRDSTLDPSLMEMTEAALRLLSRNPRGFFLFVEGGRIDHGHHESRAYRALTETIMFDDAIERAGQLTSEEDTLSLVTADHSHVFSFGGYPLRGSSIFGLAPGKARDRKAYTVLLYGNGPGYVLKDGARPDVTESESGSPEYRQQSAVPLDEETHAGEDVAVFARGPQAHLVHGVQEQTFIAHVMAFAACLEPYTACDLAPPAGTTDAAHPGDAEFRHDSGYEVHHQKLVFFAEDVGSNK
